Reference: US20050142568

Assays:
[1] = molecular target: T1, His6CPS-6, Q95NM6
T1 chain: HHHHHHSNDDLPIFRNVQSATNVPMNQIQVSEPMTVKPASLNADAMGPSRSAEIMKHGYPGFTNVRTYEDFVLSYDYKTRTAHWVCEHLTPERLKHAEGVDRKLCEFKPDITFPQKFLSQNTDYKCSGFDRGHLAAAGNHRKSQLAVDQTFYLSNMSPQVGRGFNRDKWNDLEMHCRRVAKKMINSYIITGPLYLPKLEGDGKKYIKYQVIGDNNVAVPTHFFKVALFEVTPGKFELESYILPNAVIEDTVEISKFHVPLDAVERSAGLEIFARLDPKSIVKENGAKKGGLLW

[2] = molecular target: T2, ^35S-Methionine labeled CRN-1, Q9N3T2
T2 chain: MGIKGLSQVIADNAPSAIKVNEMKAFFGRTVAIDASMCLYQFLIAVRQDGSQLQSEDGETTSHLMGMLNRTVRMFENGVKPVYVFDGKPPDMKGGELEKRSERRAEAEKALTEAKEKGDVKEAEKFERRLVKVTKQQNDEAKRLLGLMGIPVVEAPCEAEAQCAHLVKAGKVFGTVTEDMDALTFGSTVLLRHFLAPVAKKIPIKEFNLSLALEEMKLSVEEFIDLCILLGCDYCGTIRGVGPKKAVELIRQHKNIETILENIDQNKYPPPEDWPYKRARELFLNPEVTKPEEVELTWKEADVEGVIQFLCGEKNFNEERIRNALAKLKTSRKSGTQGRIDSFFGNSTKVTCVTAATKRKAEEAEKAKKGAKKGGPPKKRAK

B1: CRN-1-His6 (protein)
chain: MGIKGLSQVIADNAPSAIKVNEMKAFFGRTVAIDASMCLYQFLIAVRQDGSQLQSEDGETTSHLMGMLNRTVRMFENGVKPVYVFDGKPPDMKGGELEKRSERRAEAEKALTEAKEKGDVKEAEKFERRLVKVTKQQNDEAKRLLGLMGIPVVEAPCEAEAQCAHLVKAGKVFGTVTEDMDALTFGSTVLLRHFLAPVAKKIPIKEFNLSLALEEMKLSVEEFIDLCILLGCDYCGTIRGVGPKKAVELIRQHKNIETILENIDQNKYPPPEDWPYKRARELFLNPEVTKPEEVELTWKEADVEGVIQFLCGEKNFNEERIRNALAKLKTSRKSGTQGRIDSFFGNSTKVTCVTAATKRKAEEAEKAKKGAKKGGPPKKRAKHHHHHH
nuclease activity (plasmid cleavage assay) [1]: complete plasmid degradation and approximately 500% increase in nuclease activity

B2: full-length ^35S-methionine labeled CPS-6 (protein)
chain: MIGKVAGTAAIAGISFLAGKYSNDDLPIFRNVQSATNVPMNQIQVSEPMTVKPASLNADAMGPSRSAEIMKHGYPGFTNVRTYEDFVLSYDYKTRTAHWVCEHLTPERLKHAEGVDRKLCEFKPDITFPQKFLSQNTDYKCSGFDRGHLAAAGNHRKSQLAVDQTFYLSNMSPQVGRGFNRDKWNDLEMHCRRVAKKMINSYIITGPLYLPKLEGDGKKYIKYQVIGDNNVAVPTHFFKVALFEVTPGKFELESYILPNAVIEDTVEISKFHVPLDAVERSAGLEIFARLDPKSIVKENGAKKGGLLW
gap-dependent endonuclease activity of CRN-1 [2]: it enhanced the gap-dependent endonuclease activity of CRN-1 by more than 200%

B3: CRN-1(DY-AA) (protein)
chain: MGIKGLSQVIADNAPSAIKVNEMKAFFGRTVAIDASMCLYQFLIAVRQDGSQLQSEDGETTSHLMGMLNRTVRMFENGVKPVYVFDGKPPDMKGGELEKRSERRAEAEKALTEAKEKGDVKEAEKFERRLVKVTKQQNDEAKRLLGLMGIPVVEAPCEAEAQCAHLVKAGKVFGTVTEDMDALTFGSTVLLRHFLAPVAKKIPIKEFNLSLALEEMKLSVEEFIDLCILLGCAACGTIRGVGPKKAVELIRQHKNIETILENIDQNKYPPPEDWPYKRARELFLNPEVTKPEEVELTWKEADVEGVIQFLCGEKNFNEERIRNALAKLKTSRKSGTQGRIDSFFGNSTKVTCVTAATKRKAEEAEKAKKGAKKGGPPKKRAK
CPS-6 nuclease activity (plasmid cleavage assay) [1]: continuing enhancement of CPS-6 nuclease activity, though less potently than the wild type CRN-1 protein
